Laboratory results from the supplement of paper PMC9170038.

Tested on: K4 kissing-loop RNA reporter
Assay: apparent KD of K4 kissing-loop reporter; higher = weaker reporter binding
Conditions: Eterna round: R107
Protocol: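 RNA-MaP round R107: designed RNA switches with theophylline, tryptophan, arginine or FMN aptamers are transcribed on-chip within common flanks. They are titrated with a labelled K4 kissing-loop RNA reporter in RNA-MaP buffer (100 mM Tris pH 7.5, 80 mM KCl, 4 mM MgCl2), without ligand or with the indicated ligand. Median apparent KD per design.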

[1] = input ligand: theophylline 20 uM
[2] = input ligand: tryptophan 2.4 mM
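Further: bound reporter read as fluorescence of individual clusters on recovered sequencing chips by microscopy, with normalized cluster intensities fitted with a binding model.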

Sequence	apparent KD of K4 kissing-loop reporter (input ligand: FMN 200 uM) [µM]	apparent KD of K4 kissing-loop reporter (input ligand: arginine 13.2 mM) [µM]	apparent KD of K4 kissing-loop reporter (input ligand: none) [µM]	apparent KD of K4 kissing-loop reporter [1] [µM]	apparent KD of K4 kissing-loop reporter [2] [µM]
CACUUACGUAGUGAUGUUACGAUCUCUGAUACCAGACAACUCUAAGUCCCUUGGCAGCAGUCAUUUUGCUUCAAAUUUACUCAAA [JR_ExcTheophyA_Sub013]	0.691	0.577	0.706	0.661	0.52
CACUUACGUAGUGAUGUUACGAUCUCUGAUACCAGACAACUCUAAGUCCCUUGGCAGCAGUCAUUUUGCUUUUAAUUUACUCAAA [JR_ExcTheophyA_Sub014]	0.552	0.572	0.682	0.578	0.425
CAGAACUUGUAUACAGGGCAUGCCAGAGAUACCAGUCAAAUGGAAGGCCCUUGGCAGCUCAGGCGAGUGAUGUUCGCAGGCUGAC [Exclusion Theophylline A GF 19]	0.14	0.122	0.116	0.131	0.133
CAGAACUUGUAUACAGGGUAUGUAAGAGAUACCAGUCAAAUUAAAGACCCUUGGCAGCUCAGGCGAGUGAUGUUCGCAGGCUAAC [Exclusion Theophylline A GF 18]	0.103	0.118	0.115	0.116	0.099
CAGCAUCUGAGUGGUAGCCAUUGAGAGAUGCAGGAUAUCUGGAAACAGAGAAGGGCAGUGAGUGAUGUUCACGGCUGGCUUGGUU	0.154	0.132	0.179	0.133	0.11
CAUAGGAAACUAUGUUCCUCUCUUACUGAAGGAGCGCGUGAAAACGCAGGUAGGUCGCAGGAUUUGAGAGUGAUGUUCUCAUUAA [Ex Arginine A K4 15]	0.16	0.26	0.254	0.278	0.171
CAUUACGGUCGCUUACCAAACCACUACUUCCGAGGACCGGUACGGCCGCCACUCGCCAGUGAUGUUGGCUCGGGCGGCCGAUUAU [Orrebeante]	0.117	0.103	0.109	0.0979	0.106
CCAAGGUGCUUCUGUUCAGUGAUGUUGGUACGAGGACCGGUACGGCCGCCACUCGCCGUACAAUCGCUAGUUAAUCAUUGGCAAG [theeternabot_exclusion_KL_Trp_A_40]	0.667	0.408	0.66	0.441	0.256
CCACCUCCAGAAGGAUAUAGUGUAUCAGAUUCACUCGAGUGCCUUAAACUAAGGAGUGAUGUUCCGCUAGAAGGUCUCGUAGGCA [theeternabot_exclusion_KL_FMN_B_45]	0.191	0.145	0.149	0.138	0.133
CCAUCGCUAUUCGAUACCAGCCAGGAGGUCUUUGGCCUCCUAUUGGAGUGAUGUUCCAUAGGCCCUUGGCAGCGAAUAGUGAUGG [Theophylline B K4 16]	0.372	0.187	0.283	0.542	0.374
CCAUCGCUAUUCGAUACCAGUCAGGAGGUCUUUGGCCUCCUAUUGGAGUGAUGUUCCAUAGACCCUUGGCAGCGAAUAGUGAUGG [Theophylline B K4 15]	0.822	0.255	0.834	0.613	0.51
CCCUCACGAGUGAUGUUCGUAGGGUACAGUCAGGAUAUCAUGCGGUUGAGAAGGGACAGAGAAGGCGGCGACGGGUUGCUUAUCU [Atenus]	0.206	0.243	0.277	0.2	0.218
CCGAUACAUUAUUCUACGGCCGAGAGCGAUACCAGCCAAAUUUAUGGCCCUUGGCAGCGCAGAUGCAGUGAUGUUGCAUACAUAC [Same State Theophylline A GF 18]	0.102	0.158	0.0956	0.166	0.0832
CCGAUGGGUACAGGAUAUGCCAGUGAUGUUGGUUUAGAUGGACCCAGAAGGAGACACCAGACGGAGGCAGAAGGGUAGCAAGGGA [Raarriis]	0.14	0.108	0.106	0.1	0.105
CCGCCGGUCGGAAGGAGCGCACGCCAGAGUGAUGUUCUGGCGCAGGCAUUUAGUGCCCGCGUGCAGGUAGGUCGCCGAUUCUGGC [Arlaaa]	0.341	0.31	0.423	0.234	0.27
CCGCUACCCUCAGGAUAUUAAAUAUUAGUGAUGUUAAUAAACCGAUGGCGAAAGCCAUCGGUAUGUUAAGAAGGGAGGGUAGCGG	0.138	0.847	0.974	0.949	0.965
CCGCUACCCUCAGGAUAUUAAGUAUUAGUGAUGUUAGUAAACCGAUGGCGAAAGCCAUCGGUAUGUUGAGAAGGGAGGGUAGCGG [whbob_SS_FMNB__2th198]	0.356	0.946	1.17	0.847	0.923
CCUAUCUCAUACGAUACCAGUCAAAUAAAUUAUAACGAGUGAUGUUCGAAAUGCCAUCACGACCCUUGGCAGCGUAUGGGAUAGG [Ex Theophylline B K4 1]	0.304	0.123	0.212	0.186	0.125
CCUAUCUCAUACGAUACCAGUCUAUUAAAACGAGUGAUGUUCGAAUAUUUGCCAUAUAAUGACCCUUGGCAGCGUAUGGGAUAGG [Ex Theophylline B K4 9]	0.221	0.229	0.244	0.23	0.19
CCUAUCUCGUACGAUACCAGACUAUGAUCUUUGAUCAAUGCCAUCACCGAGUGAUGUUCGGUCCCUUGGCAGCGUAUGAGAUGGG [#12 K4 Theophylline B Exclusion]	0.179	0.143	0.17	0.202	0.155
CCUAUCUCUUACGAUACCAGUCAAUGAUAUUUUAUCAAUGCCCUCACCGAGUGAUGUUCGGACCCUUGGCAGCGUCUGGGAUAGG [pvppimullin]	0.223	0.17	0.212	0.19	0.191
CCUCACGUAGGACUAGUGAUGUUAGACUACCGAGGACCGGUACGGCCGCCACUCGUCGUACAAGAUAACCUUCCGCCAGUAUACA	0.113	0.0918	0.0999	0.0836	0.108

Sequence	apparent KD of K4 kissing-loop reporter (input ligand: FMN 200 uM) [µM]	apparent KD of K4 kissing-loop reporter (input ligand: arginine 13.2 mM) [µM]	apparent KD of K4 kissing-loop reporter (input ligand: none) [µM]	apparent KD of K4 kissing-loop reporter [1] [µM]	apparent KD of K4 kissing-loop reporter [2] [µM]
CCUUCUCUUGAUAGUGAUGUUGUCAAGGGCAAGGAUAUCAUCUUAAUGAGAAGGUGUCCUUGAUAACAUGGAGGUCUGAAACAGA [Omei KL FMN A Exc C v7]	0.123	0.305	0.301	0.38	0.375
CGAGCGGAGUGAUGUUCCGUGCCAGCAGAUACCAGAUUGAAAGAGAUCCCUUGGCAGCUGCGUCACACCCUUACGUGAUAGGACC [theeternabot_sameState_KL_Theo_A_32]	0.244	0.178	0.239	0.275	0.165
CGAGUCCUGAGGAGUGAUGUUCCUCGGCCACGAGGACCGGUACGGCCGCCACUCGUUACUCGGGCUUAGCAGCAAGCACUAAGCU [Acesote]	0.348	0.317	0.334	0.302	0.127
CGAGUCCUGAGGAGUGAUGUUCCUCGGCCACGAGGACCGGUACGGCCGCCACUCGUUACUCGGGCUUAGUAGCUAGCACUAAGCU [Quedmaon]	0.265	0.171	0.186	0.232	0.101
CGAGUGAUGUUCGUUCGUUUAUUUCGGUGACAGGAUAUGCGGAAACGCAGAAGGGUCACCUUUGGGUUACCGGAAUUAACGUUAU [Ex FMN A 30]	0.64	0.455	0.561	0.414	0.584
CGAGUGAUGUUCGUUUUUUACUCUUUUUGACAGGAUAUGCGGAAACGCAGAAGGGUCACCUUUGAGUUAAAAGGAGUUAUUUUUU [Ex FMN A 19]	0.345	0.269	0.318	0.305	0.317
CGCAGUGAUGUUGCGAAUAUAAUAACGGAAGGAGCGCGUGAAAACGCAGGUAGGUCGCCGUUUGGUAUGAUGGAAACAUCGUACC [Arginine A K4 11]	0.135	0.138	0.132	0.106	0.123
CGCAGUGAUGUUGCGAAUAUAAUUACGGAAGGAGCGCGUGAAAACGCAGGUAGGUCGCCGUUUGGUAUGAUGGAAACAUCGUACC [Arginine A K4 10]	0.14	0.125	0.147	0.115	0.117
CGCAGUGAUGUUGCUAUUAUUCUUGGUUAACGAGGACCGGUACGGCCGCCACUCGAUGUCUGUCUAGUCCAGUGUUUUUUUGAGU [whbob_EX_Tryp_A_t8]	0.351	0.467	0.506	0.579	0.228
CGCAGUGAUGUUGCUAUUAUUCUUGGUUAACGAGGACCGGUACGGCCGCCACUCGAUUUCUAUCUAAUCCAGUGUUUUUUUGAGU [JR_ExcTryptoA_Sub003]	0.301	0.377	0.396	0.458	0.204
CGCGCGGGUUUGAGAGGGUUUGCGCGAAGUGAGGAUAUUUAGGGAGAAAGAAGGCACUAUAAAAUAUAGUGAUGUUAUAUAAGGG [SSFMNA.I]	0.627	0.117	0.251	0.139	0.269
CGGAUGUAGUGAUGUUAUAUUAGAUGUAGACGAGGACCGGUACGGCCGCCACUCGUAACGGCUGCUAGCGCGUUGCGAGGUGUGC [ExTryptoA.Cl]	0.642	0.611	0.721	0.57	0.51
CGGCGGAGUGAUGUUCCACCUACUGCGGAUACCAGCUUUGCCAAAGGCCCUUGGCAGCCGCACGGCUCAGUGAUGUUGGGUCGCG [Same State Theophylline A G11]	0.225	0.179	0.244	0.223	0.199
CGGUACGUCGCAGGAUAUGUAAAUGUAAGUGAUGUUUACAUACCAUGCUGGCGAAAGCCAGCAUGGACAGAAGGGCGACGUACCG	0.111	0.354	0.47	0.328	0.506
CGUGAGUGCCGUCAGUCAUCGGUCCAUGCACGAGGACCGGUACGGCCGCCACUCGAGCGUGGCAGUGAUGUUGCCAGCGCACUAA [KL-XTryp-A12]	0.117	0.0987	0.103	0.112	0.0894
CGUGGUGCUCGCCAGCUGUGCGAGCGGUGGGAGGAUAUGUCGCGAGACAGAAGGCCCAGUGAUGUUGGGCAGGCUCGUAGAUCAA [Orbemaed]	0.152	0.118	0.121	0.133	0.116
CGUUCUUCUGUCGAUACCAGCUUCAGUUGGCGGCCAGUGAUGUUGGUAUCGCCGAUGCCAAGCCCUUGGCAGCGACAUGAGACCC [Onrire]	0.171	0.18	0.182	0.13	0.168
CGUUGUGAUGCUUGUGCUCAUACCGGAGAUACCAGUACCAUCACUUACCCUUGGCAGCUCAGUAAAGACAAGUGAUGUUUGUCAC [theeternabot_sameState_KL_Theo_A_38]	0.684	0.528	0.805	0.56	0.502
CUACAUGCACAGGAGUGAUGUUUAUGGGCUCGAGGACCGGUACGGCCGCCACUCGUUAUGGCACGCAGUAGAUAUAGGCGAGGAA [theeternabot_sameState_KL_Trp_A_41]	0.615	0.381	0.605	0.448	0.871
CUAUAUAGUGAUGUUAUAUAGAUAACAGAUACCAGCUAGAAAACUAGCCCUUGGCAGCUGAUAAGGGAAAGUAUAAUUGUGUAAA [AstroSTH-A#DifdesignED20.18]	0.0821	0.073	0.076	0.0648	0.0737
CUCCAACUUGAUGAUACCAGAGAGGAGGAAGUGAUGUUGACUCCGGCUACAUACUGGCGACUCCCUUGGCAGCAUUACGUCAUCC [theeternabot_sameState_KL_Theo_B_3]	0.389	0.265	0.318	0.417	0.353
CUCGAGUGAUGUUCGAUUAUGUAUACAGAUACCAGUGAAUUUUAACACCCUUGGCAGCUGGUAGAAUCAUUGUAAUUUUAACUAG [JR_ExcTheophyA_Sub001]	0.175	0.26	0.218	0.254	0.15
